# Test results from the DeepSol protein solubility set.
# Assay: soluble on expression in E. coli; label from the status in PepcDB or PDB records
row,Sequence,soluble on expression in E. coli
1,MDQKREALVGPITSSPASILELSIFYEFLKAQWCAFTIGSSEPPISPRQLNLLSLLIGPSNSDQEIPRDTVAVSWVYVGFEFGESCEQFGATDEQLRGHFEYQMICTNVQCIYFVEDGKKRRMAGVTWYLRNDEKSKNHEDYNMIAIYETIREKRFEEVQKIRKLEKEEALRRGGWLGEPTDEYTSTIFSHLKLLTLKDGRLAVFACNADGEEEKFAFNERTERYEVLEDVVEVEDRPSNYLLRII,not soluble
2,MHSRSVKFPSSKGHQIAGTIDFPDGTPRAFAMFAHCFTGSRFTPGAARVSKELAERGIACLRFDFPGLGQSEGIFSETSFSENVADIKAAADWLGQHYSAPQLLIGHSLGGAASLKAATTLKCLRGVATIGAPFDPAHAVLHFADRIGEVDENGAVTLTLGGRDITISREFLEDLADTNPEAYLPRLRKPLLILHSPIDQTVGVDNAQLIFRTTRYPKSLVALDKVDHLLTKQGSAQQAARIINTWFEQHIVAENEDPNADTLPEGVAVAQSIPAGKFADIVHTGTHSFTTDREKALGGKNLGVSPTSLLISALAAATSQEIRLAAKESRIHSLEDVNVTISKTVGDGERVHLRRNISLVGDLTDDERHELLLAARNSDIEKMLQGNVTINDQDV,not soluble
3,MVDFKLSPSQLEARRHAQAFANTVLTKASAEYSTQKDQLSRFQATRPFYREAVRHGLIKAQVPIPLGGTMESLVHESIILEELFAVEPATSITIVATALGLMPVILCDSPSLQEKFLKPFISGEGEPLASLMHSEPNGTANWLQKGGPGLQTTARKVGNEWVISGEKLWPSNSGGWDYKGADLACVVCRVSDDPSKPQDPNVDPATQIAVLLVTRETIANNKKDAYQILGEPELAGHITTSGPHTRFTEFHVPHENLLCTPGLKAQGLVETAFAMSAALVGAMAIGTARAAFEEALVFAKSDTRGGSKHIIEHQSVADKLIDCKIRLETSRLLVWKAVTTLEDEALEWKVKLEMAMQTKIYTTDVAVECVIDAMKAVGMKSYAKDMSFPRLLNEVMCYPLFDGGNIGLKRRQMQRVMALEDYEPWAATYGSSKVDKSRL,soluble
4,MKHYDSMDQELITMPISNAFLKLFSEFVDNYARNGTPSFYHWAKEQNHEVINKFFHELLEIIKSNTETFHDVSIIEHLNATVLLSAKTNPYLLDCWISFITKYNAETNSFTPIGASMHIKVGPEGTPSERIIRELKESLVMTQQAFILAQKANATEVDSLKRQLEQTKQENERLVTQNQFLKDQVRAEKTFADLNPQINNARQQLSALTELIQTLSEITNAKPKIETVSSLSIPVVTENKSELLKENSCSVASVSKEVTPAISQEPKKRPVPPPPNDTDGQALSPNIPPKEDVSIKVTIPSMPKPNSTQPAAKNSGFFSGDGFLKELNAKIKERKERPKDEPHTTPVEKKNL,not soluble
5,MGSDKIHHHHHHMATFTRKAIMQTFLHILKNKPLDRITVKDICEQCEINRNTFYYYFKDIYDVLEAIFEDEVRLVMDEAKEGVTFHDAYARVAALILNNREAIMHIYASENGRVLRTYLDAVVTQVVRRFVLEKAEGYSLDDSDIAFITAFYSNGIVGSTIKWIERGSMMSRLPENITANGVGLSKSQYNRDIVKRIGDSFDATIYDMIECCL,not soluble
6,SDKFLVRPDLRDLQGGGEEPAPTGGASGDLKSPDWRHLRAEGLSCDYTVLFGKAEADKIFRELEQEVEYFTGALAKVQVFGKWHSVPRKQATYGDAGLTYTFSGLTLTPKPWVPVLERVRDRVCEVTGQTFNFVLVNRYKDGCDHIGEHRDDERELAPGSPIASVSFGACRDFIFRHKDSRGKRPRRTVEVVRLQLAHGSLLMMNPPTNTHWYHSLPIRKRVLAPRVNLTFRKILPTKK,soluble
7,MGYFSNAQRHAYESLLPRYGIPLTEEPVDLDSIFGRTAPGILEIGSGMGETTAEIARQHPEKDFIAIEVHAPGIGSLLGQIEKHRLTNLRIIPHDAKLVLQQMFTSESLDGIHIFFPDPWPKARHHKRRLIQPDFVSLLCDRLKPGGYLHIATDWEDYATHILHVLRSEERFVNTAVDYAARPAYRPLTKFEQRGMKLGHTIRDIIFTRTALEHHHHHH,soluble
8,GHRIARKVTDVWEITGPSSEDAIEVARWNPFTKEHEHFMEKSVAIAEIGKLVGLTKDEVLAEIERRKLVLLWMAKSGIRRYREVAPIIFKYYYSPDDVYERAAKELKTELI,not soluble
9,MPANGGRGVGEGESPVSFFERLKAGLQKTKEALIGQVNTVMSVFRKIDDDLFDELEEALIRGDVGVATSAKLVEELRREARQKGLKNGDELLPLLKELVAERLGSGAAPLRLNEGGLTVILVVGVNGVGKTTTIGKLARHLREDRGLKVVLAAADTFRAAAMDQLKVWGERAGAEVVTGPEGADPAAVAFDGVKAARASGADVLIVDTAGRLHNKAHLMAELGKIARVLGREVPGAPHETLLVLDATTGQNAIQQTRLFKETVPVTGIALTKLDGTAKGGVVVAIADTEQVPVKFIGVGERLDDLQPFDPRQFVEALFSE,soluble
10,MADIQGEDLESLYGYAKQLFDGGEIAAARNVYQLLSTLDHWNFDYLLALGLCHQRLGAHNEAVVCFGRAGLIKVDDPRAAFYAGISYRLDGNAEYASKAFKAAINWCGEQIDYQAIKASAVDMLALQQEEVPLEHHHHHH,soluble
11,MAQTVPYGIPLIKADKVQAQGFKGANVKVAVLDTGIQASHPDLNVVGGASFVAGEAYNTDGNGHGTHVAGTVAALDNTTGVLGVAPSVSLYAVKVLNSSGSGSYSGIVSGIEWATTNGMDVINMSLGGASGSTAMKQAVDNAYARGVVVVAAAGNSGNSGSTNTIGYPAKYDSVIAVGAVDSNSNRASFSSVGAELEVMAPGAGVYSTYPTNTYATLNGTSMASPHVAGAAALILSKHPNLSASQVRNRLSSTATYLGSSFYYGKGLINVEAAAQ,soluble
12,MNILKHFPSYVGPSKIRTLVIPIGHWTRKEFNNAVQKLSEFNEIHLSDVTPIDSPIFTPQGFPHGKLFFDFLTIDHDDALELFLYDFEPFRKTFVIIGLVNDYSDPLTNLNFMKEKYPTLISPNLVYASSTPTKELEQTIDTMENVFASSPDMQKNIETIMCDIARNFLTALNSYYSSYKHVTLRSPGAIGGNAVLKTTLIRQNSYTSSSSSTPMSAVQSSVSSSSKAGSVTTASKRLSSFEMTTNSLKRSASLKLATTLSTSENRSQQKSLGRQMKILGNFQLLAGRYVDALNSFVDAITTLYKVRDYLWLGSALDGISICFLLLSYLGLSYQIPQIVSLICPVEKLNFESSSTGISPVDSNSKATASTTASSTPRNSISIAAMQSPRNSIMSLSAPALNIDVENINLPLLIKCISDKVLYYYDLSLMHNSEYAPQVVYCEFLLKTLTFMTSCYKSSEFSKDVLDNIVKNQHRALSDIPNSPMFPRFEVYFYSNKLFELQLKEMQVEAQIKIYSTMAEVYRLLGYKRKQLFVLRLLMVALLATPNKIAWHPDYRTLIDTIIELLNINESEAKINVDDPSQSTWLILQKKILQLCIKVSRKINDFEYVAKFSSILITKYTHLLNQSEQDALFKEYIQPSITNESITSYWDPFILREVVINRILDSDPTSNEIPLESDVSSLESLENRQKTQDINPQEVFNPFKRVQPTSFVSNNSTKVPILVFLVGDKAEFTCRVQNPFKFDFTINDIQLDEEISEFCEIDRKAVSYSGPYNVKAESIRSITLPLIIKKPTYKKIYEISCLKISILKLPLQKFDIINDSRRSNPVEEEAEYSKCIYGKLKIKILPEQPQLELLSTSKMTRNSWMMLDGTKTDFHITVRNKSLSCAINHIKIIPMNNIEQMLKPDYWKKMPPDDLYIMEKQLDWLSKSCVRIIKLPTVIKPNETITFDLELDNTAVPFNFTGFDLLIEYGMSATDESCIYLKKLSIPYEVTLRRTIEVPSMDIIPLNELFSSQVENVDWIEYVMSKIRAESNLHSRDFILLLLDFRNSWIDGIKLNVQFEDFTSNEYHVEASHTSRIIVPIKKIDYKKYNFENTPIPRIYPGRQFIQSGLNEEQTIEMRQKFWCREHIISKLKCNWKLTTDQSVTGSVDFNKFIEKFDHKMVYTIYPGRLFYGVQLLLDEPKVKVGEIINLKIITEPTSTCRRKQNSTVNFLDIVIFDSKTSKILPRSNRRILYNGSLTKPISTTKVSEINLEIIPIEKGRYEFSVCISKSNNQDGIIQFDSENVILSVI,soluble
13,MAHHHHHHMPELSYMFSSVSEPRALGAADDGQVITSHSNSSNNNHNNFYPLYSASGSTKVSNYGGHFENNGNNIISMNNKSDVNANTCGDSGEKGNEGEKWIWVLDPLTRKLRVPLSQLVHTQATATTGTVPSLCISFLEGRCRHQWCRQAHVLPSAIPQLRHEALHAPTCCRLHDDPHDTSVLTSRFKYIRVV,not soluble
14,MEVKKVLVSAFLLTTCLMSGQAQRRNEIQVPDLDGYTTLKCDFHMHSVFSDGLVWPTVRVDEAYRDGLDAISLTEHIEYRPHKQDVVSDHNRSFDLCREQAEKLGILLIKGSEITRAMAPGHFNAIFLSDSNPLEQKDYKDAFREAKKQGAFMFWNHPGWDSQQPDTTKWWPEHTALYQEGCMHGIEVANGHLYMPEAIQWCLDKNLTMIGTSDIHQPIQTDYDFEKGEHRTMTFVFAKERSLQGIREALDNRRTAAYFHELLIGREDLLRPFFEKCVKIEEVSRNEQGVTLSITNVTDLVLKLKKTAHDTLLVYFRDMTLKPHTRYTVRIGFKQGIKGGDVNFEVTNFIVAPDKGLKYTISL,not soluble
15,SGRHERDAFDTLFDHAPDKLNVVKKTLITFVNKHLNKLNLEVTELETQFADGVYLVLLMGLLEGYFVPLHSFFLTPDSFEQKVLNVSFAFELMQDGGLEKPKPRPEDIVNCDLKSTLRVLYNLFTKYRNVE,soluble
16,MDLGIKGKKVIVTAASKGIGLAIAKRFLEEGAKVIISSNDESNLMKAYNKLKEIHSENVSYIKADLMNPHEVKSLVHEGYRKLGGLDVLAYVTGSPKPGNLFSLSDKDWMDAFNLLLLSAVVAVREAGQLMQSGGRIILSTSTTLRQPIDNLDLSNVVRLSLAGLIKVASRELGPKGILVNGVMPGWTKTERLLQIIRDRAIREGKSEDEVLKSIVADVPLGRAGEPEEIANVVLFLASNLSTYVTGALIPVDGGSIKGVF,not soluble
17,MSLAVKPIPEGQHSITPYLAINDAAKAIEFYKQAFGAKEMFRLDAPGGRVGHAELRIGDSSLMLGDPCDMEGGLTASQKLSGAGVGLHLYVEDCDKVYAQALAAGGIQLHPLTDQFYGDRSGTLKDPFGNIWFVSTHKEDLTPDEIRARAAKMFGEGHHHHHH,soluble
18,MARTQYRAEEDDDEKVVDVINEDEEDENKSDIDEDFDEDEDEDEDKQESVKAALEKERKRGEALTNLERQAKRLGVSFDAAKAIKSGMSVEKAKNVVLTAAVSKSASLKLSTTAPHRDGTSKEKIHAKWETAWRAIK,not soluble
19,MGHHHHHHSHMTECRKSVPCGWERVVKQRLFGKTAGRFDVYFISPQGLKFRSKSSLANYLHKNGETSLKPEDFDFTVLSKRGIKSRYKDCS,not soluble
20,GPLGSSWLFLEVIAGPAIGLQHAVNSTSSSKLPVKLGRVSPSDLALKDSEVSGKHAQITWNSTKFKWELVDMGSLNGTLVNSHSISHPDLGSRKWGNPVELASDDIITLGTTTKVYVRISSQNEFQIPFKIGVASDPMA,soluble
21,MAHHHHHHMTDVVEAPRPATVAEAFANTAKALEQFNIERIRVEGLSCKSSITHCRKHDKNNMEKEEDVRTLTEQAFMREFVFQSRPCVIVGALEDWPAMQRWRDDRYLFDLDGHLSRVRRETDDAAAPSSEGTAATGDVAVVPKNNDHDSSDDNTHPREREEEKDGLKRVTVALTPNGRADAVTYVTYQGAREEGRENDVDGKKDNVEEHFIKTEKLFMAAAEIRATLPELYHLLRENPLYPPVRPVFVDLRRPAPVVAYAQMQNNCLEVEYQHLHGDIPPELDRFGERVFGEPHEAANVWFGTPASVSSMHQDWVENLYAVVRGVKEFILLPPWEGVFVPKPELPSAAFSVQRQDGVNGYVFSGTPVHDGLTIPWMDVEFTPAALEDVSLMPTNMQERLHPLVVYVQPGEVLYLPAMWLHRVAQHADDTDRLAREKQLTSSLQSAQDPPLPLIAAVNYWYDMSFTNPAVVMLREFGLLL,soluble
